From US11266616B2, “Compositions and methods for inhibiting kinase activity” (BRANDEIS UNIVERSITY, priority 2016, dated 2022)
Positions count from the first letter of the chain named.

Assays:
Aurora A kinase [1] = target: T1, Aurora A kinase (Homo sapiens, UniProt O14965, T288V); test: In vitro kinase assay (HPLC-based / ATP/NADH-coupled) of peptide substrate phosphorylation; assay type: biochemical; details: dephosphorylated Aurora A (T288V mutant), AP peptide, FIG. 20
T1 construct: Codon-optimized Aurora A^122-403 in pET28a and untagged λPP in T7-7 plasmid were co-transformed in BL21(DE3) cells; made in house; host or cells: E. coli BL21(DE3)
T1 sequence (O14965 122-403 T288V): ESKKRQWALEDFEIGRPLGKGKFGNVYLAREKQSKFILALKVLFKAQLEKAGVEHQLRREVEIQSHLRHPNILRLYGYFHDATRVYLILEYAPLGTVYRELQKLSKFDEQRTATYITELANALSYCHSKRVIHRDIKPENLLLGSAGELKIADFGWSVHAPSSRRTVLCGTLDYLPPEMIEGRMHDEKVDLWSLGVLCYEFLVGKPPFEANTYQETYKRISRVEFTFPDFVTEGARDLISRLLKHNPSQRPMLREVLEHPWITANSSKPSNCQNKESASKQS
Protocol: (§1) Aurora A, either phosphorylated/dephosphorylated wild type or mutant protein, was mixed with either AP ([…]) (SEQ ID NO: 5), Kemptide (LRRASLG) (SEQ ID NO: 6), or Lats2 ([…]) (SEQ ID NO: 7), in the absence or presence of 50 μM TPX2 in kinase buffer (20 mM TrisHCl, 200 mM NaCl, 3% [vol/vol] glycerol, 20 mM MgCl2, 1 mM TCEP, pH 7.50). These substrates comprise the consensus sequence for Aurora A ([R/K/N]—R—X—[S/T]-B where B is any hydrophobic residue with the exception of Pro) (Ferrari et al., 2005, Biochem. J., 390(Pt 1):293-302; Ohashi et al., 2006, Oncogene, 25:7691-7702; Sardon et al., 2010, EMBO Reports, 11:977-984). Peptides were ordered through Genscript. For HPLC-based activity assays the following protocol was used. The reaction was initiated with the addition of 5 mM ATP. Then 5 μl time points were collected, resuspended in 10 μl 6% (vol/vol) trichloroacetic acid (in water) to quench the reaction, and neutralized with 50 μl 100 mM KH2PO4, pH 8.0 to provide the appropriate pH for nucleotide separation. The mixture was then passed through a 0.22 μm SpinX column to remove any protein precipitation. Reverse phase-high performance liquid chromatography (RP-HPLC) and an ACE 5 C18-AR, 100 Å pore size column, were used to separate nucleotides as well as peptides. For nucleotide runs, 2 μl of the aforementioned mixture was sufficient for analysis, whereas for the peptide runs the optimal injection volume was 20 μl. Nucleotide runs were routinely performed to ensure no unproductive hydrolysis was occurring during the experiment. An isocratic elution run in 100 mM KH2PO4, pH 6.0 was performed for this purpose. For the peptide runs, a gradient of 0-30% of elution buffer lasting 10 min at 0.4 mL/min was sufficient to separate phosphorylated from non-phosphorylated species. The running buffer was 0.1% TFA (vol/vol) in water, while the elution buffer was 100% acetonitrile. Lastly, to ensure full saturation of Aurora A by TPX2 and test these proteins were well behaved, a dose-dependence curve of the effect of TPX2 on Aurora A was obtained.
(§2) For ATP/NADH-coupled assay-based reaction, the following protocol was used. Phosphorylation of different concentrations of Lats2 peptide was monitored using the ATP/NADH coupled assay in a 96-well plate format. Reactions were carried in the presence of 1 μM dephosphorylated or 0.05 μM phosphorylated Aurora and 5 mM ATP in assay buffer (20 mM TrisHCl, 200 mM NaCl, 20 mM MgCl2, 10% (v/v) glycerol, 1 mM TCEP, pH 7.50) at 25° C.

Aurora A kinase [2] = target: T2, Aurora A kinase (Homo sapiens, UniProt O14965); test: as above; assay type: biochemical; details: phosphorylated Aurora A, AP peptide, FIG. 20
T2 construct: Codon-optimized Aurora A^122-403 in pET28a and untagged λPP in T7-7 plasmid were co-transformed in BL21(DE3) cells; inferred from pET28a and the NiNTA column) (cleaved yes); made in house; host or cells: E. coli BL21(DE3)
T2 sequence (O14965 122-403): T1 sequence (O14965 122-403 T288V) with V167T
Protocol: as §1, §2

Substance: TPX2: naturally occurring allosteric activator of Aurora A kinase, binds the PIF pocket (MSQVKSSYSYDAPSDFINFSSLDDEGDTQNIDSWFEEKANLENKL) [reference compound]
- effect of TPX2 binding on kinase activity (Aurora A kinase [1]): greatly increased
- effect of TPX2 binding on kinase activity (Aurora A kinase [2]): only slightly increased
